Consider six molecules from publication PMC12714728 (npj Viruses, 2025).

The chains are these.
B1: cyclic peptide CP8 (peptide)
peptide: CLYRDPLGVAGGMGC
modifications: not fully specified (bridges); cysteine pairing not given here
notes: source: synthetic peptide (manual solid phase Fmoc chemistry, iodine oxidation, RP-HPLC)
B2: linear peptide LP1 (peptide)
peptide: Suc-VSLYRDPLGVAGGMGVY-NH2
notes: source: synthetic peptide (manual solid phase Fmoc chemistry, RP-HPLC)
B3: cyclic peptide CP14 (peptide)
peptide: LYEDPLGVAGGMG
modifications: head-to-tail lactam cyclized (no template)
notes: as for B2
B4: cyclic peptide CP11 (peptide)
peptide: CYRDPLGVAGGMC
modifications: disulfide 1-13
notes: as for B1

Starred links: 1 amine or outer side, 2 acyl side, 3 side chain; linkers in the order of their positions; H or OH if unused. Positions of bridges follow the written chain, without caps; N, C: chain ends. No end group written: not given here. Suc = O=C(CCC(=O)[*:2])[*:1]

The target of one test is T1, hemagglutinin (HA) ectodomain of A/Vietnam/1203/2004 (H5N1) (influenza A virus A/Vietnam/1203/2004 …). Put plainly: AlphaScreen or HTRF. Particulars: both partners purified. (Alpha assays give light when donor and acceptor beads are brought close together.)
With B1, the IC50 turned out to be 1.55 µM.

Molecule B2 had an IC50 of 47.9 µM.

Regarding B3, the IC50 was determined as 10 µM. Compared with the last molecule, the IC50 is about 4.8-fold lower.

CYEDPLGVAGGMC (not fully specified; cysteine pairing not given here) [cyclic peptide CP12] yielded an IC50 of 28.8 µM.

In turn, CYRDPLGVAGEMC (not fully specified; cysteine pairing not given here) [cyclic peptide CP13] had an IC50 of 39.8 µM. The IC50 values of the last two molecules are within 1.5-fold of each other.

With B4, the IC50 came to 7.78 µM.

The next test concerns the target T1, hemagglutinin (HA) ectodomain of …. Put plainly: cell-based or functional assay.
Conditions: not given
B1: the “virus neutralization assay (VNA) EC50, H5/Viet virus” value worked out at 34.6 µM.

The term IC50 denotes the concentration that inhibits the measured activity by half. High values mean weaker potency in that assay, low ones greater potency in that assay.
